Assay results published in the supplement of paper PMC5998384.

Key:
[1] = test system: HeLa Kyoto; assay: solubility in G1/S (NP-40 vs SDS abundance) (log2 ratio); higher = more soluble; details: cell cycle stage: G1/S
[2] = test system: HeLa Kyoto; assay: thermal stability score vs G1/S (z-score of summed log2 fold changes over temperatures); higher = more thermally stable than in G1/S
[3] = test system: HeLa Kyoto; assay: melting temperature (median over replicates), in situ; higher = more thermally stable
[4] = test system: HeLa Kyoto; assay: solubility change mitosis vs G1/S (difference of NP-40 vs SDS log2 ratios) (log2 ratio difference); higher = more soluble in mitosis
[5] = cell cycle stage: early G1 (4.5 h after nocodazole release)
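For melting temperature (median over replicates), in situ in this document: HeLa Kyoto cells synchronized by double thymidine or nocodazole block, proteins quantified by TMT10plex mass spectrometry, three independent biological replicates.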
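For solubility change mitosis vs G1/S (difference of NP-40 vs SDS log2 ratios) in this document: synchronized HeLa Kyoto cells (double thymidine block for G1/S, nocodazole release for mitosis), protein amounts in NP-40 versus SDS lysates quantified by mass spectrometry, three biological replicates.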
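For solubility in G1/S (NP-40 vs SDS abundance) in this document: HeLa Kyoto cells arrested at G1/S by double thymidine block, proteins quantified by TMT10plex mass spectrometry in mild NP-40 versus SDS extracts, three biological replicates.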
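For thermal stability score vs G1/S (z-score of summed log2 fold changes over temperatures) in this document: synchronized HeLa Kyoto cells, proteins quantified by TMT10plex mass spectrometry, three biological replicates, mitosis taken 0.5 h after nocodazole release, G1/S directly after double thymidine block.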

Row | Substance | solubility in G1/S (log2) [1] | thermal stability score [2, 5] | thermal stability score ([2]; cell cycle stage: mitosis) | melting temperature ([3]; cell cycle stage: G1/S) [°C] | melting temperature ([3]; cell cycle stage: mitosis) [°C] | solubility change mitosis (log2) [4]
1 | MLSLQYPDVYRDETAVQDYHGHKICDPYAWLEDPDSEQTKAFVEAQNKITVPFLEQCPIRGLYKERMTELYDYPKYSCHFKKGKRYFYFYNTGLQNQRVLYVQDSLEGEARVFLDPNILSDDGTVALRGYAFSEDGEYFAYGLSASGSDWVTIKFMKVDGAKELPDVLERVKFSCMAWTHDGKGMFYNSYPQQDGKSDGTETSTNLHQKLYYHVLGTDQSEDILCAEFPDEPKWMGGAELSDDGRYVLLSIREGCDPVNRLWYCDLQQESSGIAGILKWVKLIDNFEGEYDYVTNEGTVFTFKTNRQSPNYRVINIDFRDPEESKWKVLVPEHEKDVLEWIACVRSNFLVLCYLHDVKNILQLHDLTTGALLKTFPLDVGSIVGYSGQKKDTEIFYQFTSFLSPGIIYHCDLTKEELEPRVFREVTVKGIDASDYQTVQIFYPSKDGTKIPMFIVHKKGIKLDGSHPAFLYGYGGFNISITPNYSVSRLIFVRHMGGILAVANIRGGGEYGETWHKGGILANKQNCFDDFQCAAEYLIKEGYTSPKRLTINGGSNGGLLVAACANQRPDLFGCVIAQVGVMDMLKFHKYTIGHAWTTDYGCSDSKQHFEWLVKYSPLHNVKLPEADDIQYPSMLLLTADHDDRVVPLHSLKFIATLQYIVGRSRKQSNPLLIHVDTKAGHGAGKPTAKVIEEVSDMFAFIARCLNVDWIP [PREP] | 0.00417 | -0.0879 | 0.619 | 49.3 | 49.5 | -0.186
2 | DNAJB4 | 0.0979 | 1.4 | 0.454 | 49.3 | 49.5 | 0.0771
3 | MKVARFQKIPNGENETMIPVLTSKKASELPVSEVASILQADLQNGLNKCEVSHRRAFHGWNEFDISEDEPLWKKYISQFKNPLIMLLLASAVISVLMHQFDDAVSITVAILIVVTVAFVQEYRSEKSLEELSKLVPPECHCVREGKLEHTLARDLVPGDTVCLSVGDRVPADLRLFEAVDLSIDESSLTGETTPCSKVTAPQPAATNGDLASRSNIAFMGTLVRCGKAKGVVIGTGENSEFGEVFKMMQAEEAPKTPLQKSMDLLGKQLSFYSFGIIGIIMLVGWLLGKDILEMFTISVSLAVAAIPEGLPIVVTVTLALGVMRMVKKRAIVKKLPIVETLGCCNVICSDKTGTLTKNEMTVTHIFTSDGLHAEVTGVGYNQFGEVIVDGDVVHGFYNPAVSRIVEAGCVCNDAVIRNNTLMGKPTEGALIALAMKMGLDGLQQDYIRKAEYPFSSEQKWMAVKCVHRTQQDRPEICFMKGAYEQVIKYCTTYQSKGQTLTLTQQQRDVYQQEKARMGSAGLRVLALASGPELGQLTFLGLVGIIDPPRTGVKEAVTTLIASGVSIKMITGDSQETAVAIASRLGLYSKTSQSVSGEEIDAMDVQQLSQIVPKVAVFYRASPRHKMKIIKSLQKNGSVVAMTGDGVNDAVALKAADIGVAMGQTGTDVCKEAADMILVDDDFQTIMSAIEEGKGIYNNIKNFVRFQLSTSIAALTLISLATLMNFPNPLNAMQILWINIIMDGPPAQSLGVEPVDKDVIRKPPRNWKDSILTKNLILKILVSSIIIVCGTLFVFWRELRDNVITPRDTTMTFTCFVFFDMFNALSSRSQTKSVFEIGLCSNRMFCYAVLGSIMGQLLVIYFPPLQKVFQTESLSILDLLFLLGLTSSVCIVAEIIKKVERSREKIQKHVSSTSSSFLEV [ATP2C1] | -0.143 | -1.8 | -1.34 | 54.1 | 54.2 | -0.0972
4 | MAPHDPGSLTTLVPWAAALLLALGVERALALPEICTQCPGSVQNLSKVAFYCKTTRELMLHARCCLNQKGTILGLDLQNCSLEDPGPNFHQAHTTVIIDLQANPLKGDLANTFRGFTQLQTLILPQHVNCPGGINAWNTITSYIDNQICQGQKNLCNNTGDPEMCPENGSCVPDGPGLLQCVCADGFHGYKCMRQGSFSLLMFFGILGATTLSVSILLWATQRRKAKTS [ATRAID] | -0.19 | 0.782 | 0.854 | 53.9 | 54.8 | 0.252
5 | MADGEEPEKKRRRIEELLAEKMAVDGGCGDTGDWEGRWNHVKKFLERSGPFTHPDFEPSTESLQFLLDTCKVLVIGAGGLGCELLKNLALSGFRQIHVIDMDTIDVSNLNRQFLFRPKDIGRPKAEVAAEFLNDRVPNCNVVPHFNKIQDFNDTFYRQFHIIVCGLDSIIARRWINGMLISLLNYEDGVLDPSSIVPLIDGGTEGFKGNARVILPGMTACIECTLELYPPQVNFPMCTIASMPRLPEHCIEYVRMLQWPKEQPFGEGVPLDGDDPEHIQWIFQKSLERASQYNIRGVTYRLTQGVVKRIIPAVASTNAVIAAVCATEVFKIATSAYIPLNNYLVFNDVDGLYTYTFEAERKENCPACSQLPQNIQFSPSAKLQEVLDYLTNSASLQMKSPAITATLEGKNRTLYLQSVTSIEERTRPNLSKTLKELGLVDGQELAVADVTTPQTVLFKLHFTS [UBA3] | 0.115 | 1.23 | 1.76 | 51.8 | 51.5 | -0.178
6 | MSVTYDDSVGVEVSSDSFWEVGNYKRTVKRIDDGHRLCSDLMNCLHERARIEKAYAQQLTEWARRWRQLVEKGPQYGTVEKAWMAFMSEAERVSELHLEVKASLMNDDFEKIKNWQKEAFHKQMMGGFKETKEAEDGFRKAQKPWAKKLKEVEAAKKAHHAACKEEKLAISREANSKADPSLNPEQLKKLQDKIEKCKQDVLKTKEKYEKSLKELDQGTPQYMENMEQVFEQCQQFEEKRLRFFREVLLEVQKHLDLSNVAGYKAIYHDLEQSIRAADAVEDLRWFRANHGPGMAMNWPQFEEWSADLNRTLSRREKKKATDGVTLTGINQTGDQSLPSKPSSTLNVPSNPAQSAQSQSSYNPFEDEDDTGSTVSEKDDTKAKNVSSYEKTQSYPTDWSDDESNNPFSSTDANGDSNPFDDDATSGTEVRVRALYDYEGQEHDELSFKAGDELTKMEDEDEQGWCKGRLDNGQVGLYPANYVEAIQ [PACSIN2] | 0.218 | 1.11 | 1.7 | 49.6 | 49.7 | -0.0385
7 | MSKPPPKPVKPGQVKVFRALYTFEPRTPDELYFEEGDIIYITDMSDTNWWKGTSKGRTGLIPSNYVAEQAESIDNPLHEAAKRGNLSWLRECLDNRVGVNGLDKAGSTALYWACHGGHKDIVEMLFTQPNIELNQQNKLGDTALHAAAWKGYADIVQLLLAKGARTDLRNIEKKLAFDMATNAACASLLKKKQGTDAVRTLSNAEDYLDDEDSD [OSTF1] | 0.545 | -0.239 | 0.339 | 49.3 | 50.7 | -0.158
8 | MENSSAASASSEAGSSRSQEIEELERFIDSYVLEYQVQGLLADKTEGDGESERTQSHISQWTADCSEPLDSSCSFSRGRAPPQQNGSKDNSLDMLGTDIWAANTFDSFSGATWDLQPEKLDFTQFHRKVRHTPKQPLPHIDREGCGKGKLEDGDGINLNDIEKVLPAWQGYHPMPHEVEIAHTKKLFRRRRNDRRRQQRPPGGNKPQQHGDHQPGSAKHNRDHQKSYQGGSAPHPSGRPTHHGYSQNRRWHHGNMKHPPGDKGEAGAHRNAKETMTIENPKLEDTAGDTGHSSLEAPRSPDTLAPVASERLPPQQSGGPEVETKRKDSILPERIGERPKITLLQSSKDRLRRRLKEKDEVAVETTTPQQNKMDKLIEILNSMRNNSSDVDTKLTTFMEEAQNSTNSEEMLGEIVRTIYQKAVSDRSFAFTAAKLCDKMALFMVEGTKFRSLLLNMLQKDFTVREELQQQDVERWLGFITFLCEVFGTMRSSTGEPFRVLVCPIYTCLRELLQSQDVKEDAVLCCSMELQSTGRLLEEQLPEMMTELLASARDKMLCPSESMLTRSLLLEVIELHANSWNPLTPPITQYYNRTIQKLTA [CTIF] | 0.0528 | -0.292 | 0.109 | 52.1 | – | 0.157
